B1: OR4K15 (parent)
chain: GUUAACGGUCAUAGGCCAUGGAAACUAGGAGCACCAUUUCGCUGCCAGUGAAGAAAUGAACAAAGAAAAUCUGGGCCAGGCAGGCAUCAAAAGAAAUAGUCUUGCGCUCAACCAGAAAGUCUGUAAUCAUUUUAAGGGUA

Variants of B1 are the subject of the data set. Briefly: self-cleavage, relative activity (ratio to wild type); higher = more cleavage; in vitro, sequencing; the parent is a self-cleaving ribozyme.
As to A60G A118C, the self-cleavage was 0.74.
Regarding A60G A118G, the self-cleavage came to 1.07.
As for A63U A82G, the self-cleavage was 0.36.
As for A64G A66U, the figure is 0.44; as for A64G A66G, 1.39.
For the variant A62U U139C, the self-cleavage came to 1.82.
As for A62U U139A, the figure is 1.78; as for A60G A78G, 0.23; as for C61U A64G, 1.63.
As for A60U A98G, the figure is 0.39; as for A60G U124C, 0.63; as for A63G U127G, 2.41.
As for A62U A95G, the figure is 2.47; as for A60G A66G, 1.15.
For A63U U130C, the self-cleavage stood at 0.28.
As for A62U G99A, the figure is 0.62; as for A62G A135G, 2.19.
As for A63G U72C, the figure is 0.27.
Next, A63G U72A: 0.33; C61U U133C: 1.21; A60G A116G: 0.5.
As to A60G A116U, the self-cleavage amounted to 0.31.
For A60U U87C, the self-cleavage was 1.43.
For A60U U87A, the self-cleavage worked out at 1.61.
As to A63U A140U, the self-cleavage was 1.52.
As to A62G G83A, the self-cleavage came out at 0.99.
Next, A62G A129G: 1.09; A62G A129U: 0.89.
Turning to A60G U72C, the self-cleavage came to 0.17.
Take A60G U72A: the self-cleavage came out at 0.17.
Next, A62U U120A: 2.24; A62U U120C: 1.
Next, A62G A110G: 0.16.
As to A62G A110U, the self-cleavage turned out to be 2.32.
As for A62G A116U, the figure is 0.35.
As for A60G A140G, the figure is 1.21; as for C61U G115A, 0.08; as for A60G A63G, 1.35.
As for A60G A63C, the figure is 1.48.
Consider A62U U132C, for which the self-cleavage is 1.48.
For the variant A62U G104A, the self-cleavage was determined as 0.04.
As for A62C A96G, the figure is 2.59.
Next, A60U A64G: 0.65; A62G A126C: 0.62.
For A62G A126G, the self-cleavage was found to be 2.05.
As for A62G A126U, the figure is 1.6.
For the variant A62C A140U, the self-cleavage worked out at 1.7.
Consider A63C U131C, for which the self-cleavage is 1.99.
With A63G U87G, the self-cleavage came to 1.35.
As for A60G A90C, the figure is 0.79; as for A62G A114G, 0.44; as for A63G U130G, 1.92.
As for A63G U130C, the figure is 1.13; as for A60G C101A, 0.23.
Next, A60G A129G: 0.49; A63C: 1.81; A63U: 0.82.
Take A63G: the self-cleavage was 1.41.
Next, A62U G74A: 0.41; A60G G115A: 0.04.
Next, A62G A94G: 1.52.
As for A60G C105U, the figure is 0.28.
In the case of A63G A126G, the self-cleavage came out at 1.13.
On to A63G A126U, for which the self-cleavage is 0.57.
As for A62G A64G, the figure is 0.94; as for A62U U108A, 0.02.
Take A63G U132C: the self-cleavage was 1.67.
Next, A59U U132A: 1.61.
As for A60U A69G, the figure is 1.51.
As for A62U A118G, the figure is 1.9; as for A59U U131C, 1.25; as for A62G U108C, 0.02.
For A62G A95G, the self-cleavage amounted to 2.2.
In the case of A63G C101A, the self-cleavage worked out at 0.32.
As for A63G C109U, the figure is 0.69; as for A63G C109A, 0.55; as for A60G G104A, 0.02.
In the case of A63G U103G, the self-cleavage was found to be 0.01.
Next, A62C A116G: 0.78.
As for A62C A116U, the figure is 0.63; as for A59U U100G, 2.13; as for A62C U97A, 1.86.
As for A63U A95G, the figure is 1.78; as for A62G U139C, 1.62.
Consider A62G U139A, for which the self-cleavage is 1.84.
For the variant A63G A118C, the self-cleavage was 1.42.
Take A60G U87C: the self-cleavage was determined as 0.93.
Next, A62G A134G: 1.72; A60G C71U: 0.1; A62U U131C: 1.2.
As for A60G U70A, the figure is 1.3; as for A60C U122C, 1.62; as for A60U A96G, 1.78.
As for A63G A69G, the figure is 1.04.
With A63G C107U, the self-cleavage was 0.01.
Next, A63G C107G: 0.01.
Take A62U A111G: the self-cleavage was found to be 0.02.
As for A63G A111U, the figure is 0.18; as for A60U G79U, 0.08.
Take C61U A78U: the self-cleavage came out at 0.43.
As for A60G U102A, the figure is 0.99; as for A60U A118U, 0.99; as for A60U U103C, 0.16.
As for A63U A64G, the figure is 0.94; as for A63G A90G, 1.6.
As to A60C A117U, the self-cleavage came to 0.56.
Next, A62G G74A: 0.24.
As for A60G U132A, the figure is 1.17; as for A62U A91G, 0.94.
Next, A60G U127C: 0.93; A60G U127G: 1.52.
As for A60G U127A, the self-cleavage came to 1.87.
Next, A60C A69G: 2; A59U U103G: 0.04; A63C G83U: 0.83.
As for C61U A94G, the figure is 1.63; as for A60U A86G, 0.74; as for C61U U72A, 0.19.
Next, A63U A90U: 1.93; A62U U102A: 0.57.
With A63G U139A, the self-cleavage stood at 1.74.
As for A62G G106A, the figure is 0.01; as for A62G A63U, 1.61.
Next, A63G A140G: 2.02.
Next, A63G A140U: 1.52; A62G A66G: 1.48.
For A62G A66U, the self-cleavage turned out to be 1.78.
With A62C U130C, the self-cleavage stood at 0.71.
Take A62U G84C: the self-cleavage is 0.25.
As for A60U A134G, the figure is 1.84; as for A62G G136U, 1.1; as for A62G G136A, 2.2.
Next, A62G U87C: 0.88.
Next, A62G U87A: 1.71; A60G A125G: 0.69.
Take C61U C101U: the self-cleavage amounted to 0.54.
As for A60U G136A, the self-cleavage was determined as 1.51.
In the case of A62G A90U, the self-cleavage is 0.76.
With A62G A90G, the self-cleavage turned out to be 0.54.
Next, C61U A63G: 2.17.
Consider A64C U102A, for which the self-cleavage was 0.71.
Regarding A63G U124A, the self-cleavage was found to be 0.72.
As for A62U G73U, the figure is 0.17; as for A62U U97C, 0.96.
Regarding A62G U102A, the self-cleavage worked out at 1.14.
As for A62G C85U, the figure is 0.63; as for A63G A125C, 1.23.
Next, A60G G84U: 0.43; A63G U102A: 1.39; A63G U102G: 0.54.
Next, A63G U102C: 1.43; A62G G115U: 0.07.
As for C61U U132C, the self-cleavage was 1.89.
Next, A60G A114U: 0.06; A60G U131C: 0.15; A60C A66G: 0.72.
Turning to A60U U108C, the self-cleavage is 0.01.
For A63G A94U, the self-cleavage was determined as 0.98.
Turning to A60C U72C, the self-cleavage came out at 0.16.
As for A63G G99A, the figure is 0.76; as for A62G A117G, 1.43.
Next, A63G A91U: 2.36; A62C A135G: 1.24; A60C U100A: 0.68.
As for A60U A62G, the figure is 1.72; as for A63U U122C, 1.57; as for A60G U100C, 1.35.

Values taken from the RNAGym collection of RNA variant scans (doi:10.7554/elife.90254).
